Data from US20240352438A1, “MEANS AND METHODS FOR DETOXIFYING OCHRATOXIN A” (DSM Austria GmbH, priority 2021, published 2024).

assay: Thermostability assay: residual OTA detoxification activity after 10 min incubation at 45-99° C. (T50); type: physicochemical; conditions: 0.1 mg/mL protein in 20 mM Tris-HCl pH 7.5, residual OTA detoxification activity relative to 4° C. reference aliquot
Description: Stability was determined in terms of thermostability. Notwithstanding, a person having skill in the art is aware that stability towards high temperature (e.g. more than 30° C.) often correlates with stability towards other non-standard conditions such as stability towards acidic or basic pH (e.g. below pH 6.5 or above pH 7.5, respectively), towards elevated salt concentrations, organic solvents or drying.
To determine the kinetic stability of the produced enzymes, thermostability assays were performed. To this end, purified protein samples were diluted to a protein concentration of 0.1 mg/mL in 20 mM Tris-HCl buffer pH 7.5 and aliquots were incubated in a thermocycler for 10 min at either 45, 55, 65, 75, 80, 85, 90, 95 or 99° C. After this incubation, the aliquots were stored at 4° C. until further analysis. A reference aliquot was stored at 4° C. throughout the incubation. Subsequently, all aliquots were assayed for residual OTA detoxification activity using the assay described in Example 3. Residual enzyme activities were calculated relative to the reference aliquot. The temperature range in which 50% of the initial activity was lost after the incubation (T50), in relation to the reference aliquot was determined.

Molecule	T50 (temperature at which 50% of the initial activity was maintained)
29 (protein, exemplary polypeptide) MDLGIKNGNVFNGKGVVGKVNIYVKDGKIVEISKENKQAKIEIDAKDMFVMPGLIDAHIHLTGIKGGSLLKTMFEKPEYRVLRASKWLEKLLLAGFTTVRDCGETISLALKRGVSEGIINGPRIIAAGKPISQTFGHGELSHDVPLEFSMALSFSEFCDGVESCIRASRKVLRDGADFIKIFATGGVLSQRDRPEHPQLSYEEISAIVNEAEKINTYVAAHAHGDKGARIAVEAGIKTLEHGTLLRDETLKLMRERNVTLTPTLTIQELIYKYGKQIGVDEWGLQKINEVRESVVNVVKKAEEYGVMIITGTDLGFETGLEEIDIGKNWMESVLLVERGGLSTISSLRASTYNSAFAIGINAGAIEVGKDADIIVIDGDPTENIRDLSKVRRVVKNGKLTVEDGKFL	>95 °C
28 (protein, exemplary polypeptide) MDISIKGGELFTGKELLGKFNIYIKDKKIVEISKEDKQAEVEVNAKDMFVMPGLIDAHIHLSGVKGGSLLKTMFEKPEYRVLRASKWLERLLLAGFTTVRDCGESISIALKRAVNEKIIKGPKIIAAGRPISQTFGHGELSHDLPLEFSKALSFSEFCDGVESCIHASRKVLREGADFIKIFATGGVLSQRDKPENPQLSYEEIKAIVNEAEKVNTYVAAHAHGDKGARIAIEAGVKTLEHGTLLRDDTLKLMVEKRVSLTPTLTIQELIYKYGKQIGVDEWGLEKINSVRESVAEVVRKAKEYGVLIINGTDLGFETGLDEIDMGKNWMETVLLVERGNLSNVEALRASTYNSAIAIGNDAGIIDIGRPADIIVINGNPSENIRDISKVVHVIKDGSLVVENKRLTDSL	>95 °C
26 (protein, exemplary polypeptide) MAFDIALKNGNIFNGKEFIGKSNIYINNGKIVKVSKEELDAKQEIDAMDMFVMPGLIDAHMHISGIKGGSLLKLMFERPEYRTIRATKWLEKLLLAGFTTVRDCGDPISISLAKAVKEGIIKGPNVIAAGRPITQTFGHGELSHDIPLEVSETTGFSEICDGTESCIHAARKVLREGSDFIKIFATGGVLSQRDKPENPQLTYDEIKVIVNEAEKVGTYVAAHAHGDKGARIAIEAGIKTLEHGTLLQDETLKLMIEKKVTLTPTLSIQEVIYRHGKEIGVDEWGLEKIAMVRDSISSVVKKAKDYGITIITGTDLGFETGLEDIDIGKNWMEIVLLIEIGGLTPVEALRAATYNSSIAININSGLIDSGKEADLIIINGNPLEDIKDISKVSYVIKDGKIEVEERKIKN	>95 °C
24 (protein, exemplary polypeptide) MELAIRNGIVFNGKEIIGKTNIYVREGKIVEVSREDHSAKMEIDAKDMFVMPGLIDAHIHLSGIKGGSLLKIMFEKPEYRVLRAAKWLEKLLLAGFTTVRDCGETVSLALKRALNDGIIGGPKVIAAGKPITQTFGHGELSHDVPLEFSKTMSFSEFCDGMESCIHAARKVLRDGADFIKIFATGGVLSQRDRPEHPQLSYEEIRAIVNEAEKVNTYVAAHAHGDRGARIAIEAGVKTLEHGTLLKDETLKLMKEKNVTLTPTLTIQELIFKYGKQIGVDEWGLQKITSVRENIANVVRKAKEYGVTIISGTDLGFETGLEEIDMGKNWMETVLLVERGGLSPIEALRASTYNAAMAIGINAGVIEIGKDADIIIINGDPTLNVREISKITHVVKNGKLTVENKSIKG	>95 °C
30 (protein, exemplary polypeptide) MELAIRNGIVFNGKEVIGKTNIYVREGKIVEVSREDHSAKMEIDAKDMFVMPGLIDAHIHLSGIKGGSLLKIMFEKPEYRVLRAAKWLEKLLLAGFTTVRDCGETVSLALKRAVNDGIIDGPKVIAAGKPITQTFGHGELSHDVPLEFSKTMSFSEFCDGMESCIHAARKVLRDGADFIKIFATGGVLSQRDTPEHPQLSYEEIRAIVNEAEKVNSYVAAHAHGDRGARIAIEAGVKTLEHGTLLKDETLKLMKEKNVTLTPTLTIQELIFKYGKQIGVDEWGLQKITSVRESIANVVRKAKEYGVTIISGTDLGFETGLEEIEMGKNWMETVLLVERGGLSPIEALRASTYNAAMAIGINAGVIEIGKDADIIIINGDPTQNVREISKITHVIKNGKLTVENKSIKG	>95 °C
31 (protein, exemplary polypeptide) MELAIRNGIVFNGKEVIGKTNIYVREGKIVEVSREDHSAKMEIDAKDMFVMPGLIDAHIHLSGIKGGSLLKIMFEKPEYRVLRAAKWLEKLLLAGFTTVRDCGETVSLALKRAVNDGIVDGPKVIAAGKPITQTFGHGELSHDVPLEFSKTMSFSEFCDGMESCIHAARKVLRDGADFIKIFATGGVLSQRDTPEHPQLSYEEIRAIVNEAEKVNSYVAAHAHGDRGARIAIEAGVKTLEHGTLLKDETLKLMKEKNVTLTPTLTIQELIFKYGKQIGVDEWGLQKITSVRESIANVVRKAKEYGVTIISGTDLGFETGLEEIEMGKNWMETVLLVERGGLSPIEALRASTYNAAMAIGINAGVIEIGKDADIIIINGDPTQNVREISKITHVIKNGKLTVENKSIKG	>95 °C
33 (protein, exemplary polypeptide) MELAIRNGIVFNGKEIIGKTNIYVREGKIVEVSREDHSAKMEIDAKDMFVMPGLIDAHIHLSGIKGGSLLKIMFEKPEYRVLSAAKWLEKLLLAGFTTVRDCGETVSLALKRALNDGIIGGPKVIAAGKPITQTFGHGELSHDVPLEFSKTMSFSEFCDGMESCIHAARKVLRDGADFIKIFATGGVLSQRDRPEHPQLSYEEIRAIVNEAEKVNTYVAAHAHGDRGARIAIEAGVKTLEHGTLLKDETLKLMKEKNVTLTPTLTIQELIFKYGKQIGVDEWGLQKITSVRENIANVVRKAKEYGVTIISGTDLGFETGLEEIDMGKNWMETVLLVERGGLSPIEALRASTYNAAMAIGINAGVIEIGKDADIIIINGDPTLNVREISKITHVVKNGKLTVENKSIKG	>95 °C
32 (protein, exemplary polypeptide) MELAIRNGIVFNGKEVIGKTNIYVREEKIVEISREDHSAKMEIDAKDMFVMPGLIDAHIHLSGIKGGSLLKIMFEKPEYRVLRAAKWLEKLLLAGFTTVRDCGETVSLALKRALNDGIIDGPKVIAAGKPITQTFGHGELSHDVPLEFSKTMSFSEFCDGMESCIHAARKVLRDGADFIKIFATGGVLSQRDRPEHPQLSYEEIRAIVNEAEKVNTYVAAHAHGDRGARIAIEAGVKTLEHGTLLKDETLKLMKEKNVTLTPTLTIQELIFKYGKQIGVDEWGLQKITSVRENIANVVRKAKEYGVTIISGTDLGFETGLEEIDMGKNWMETVLLVERGGLSPIEALRASTYNAAMAIGINAGVIEIGKDADIIIINGDPTLNVREISKITHVIKNGKLTVENKSIKG	>95 °C
25 (protein, exemplary polypeptide) MFDLGIKNGNVFSGKDNLGKTNIYVNNGKIVKISKENLEVRQEIDAKDMFVMPGLIDSHIHLSGIKGGSLLKIMFEKPEYRILRASKWLEKLLLAGFTTVRDCGDPISISLAKGVKDGIIIGPNIIAAGRPITQTFGHGEISHDIPLEFSEVLGFSEICDGVESCIHSARKVLREGSDFIKIFATGGVLSQRDRPENPQLTYEEIKSIVNEAEKIGTYVAAHAHGDKGARIAIEAGIKTLEHGTMLKDDTMKLMIEKDVSLTPTLTIQEVIYKYGKQIGVDEWGLEKITEVRNSISSVVKKAKEYGIRIITGTDLGFETGLSDIDIGKNWVELTLLVERGGLTPKEALQAATYNSALSLRINSGLIDTDRNADIIIIDGDPEENISDIAKIDHVIKNGNIIVEKGKIINYS	>95 °C
23 (protein, exemplary polypeptide) MQYDVAIKNGNVFTGTEFIGKMNIYISNGKISKVSKEDLNAKQEIDAKDMLVMPGLIDAHMHISGLKGGSLLKIMFEKPEYRALRATKWLEKLLLAGFTTVRDCGEPISISLKRAVNEGYIKGPKIIAAGKPITQTFGHGEFSHDIPLEFSISLGFSEICDGTESCIHAARKVLRDGSDFIKIFATGGVLSQRDRPDMPQLSFDEIRAIVNEAEKAGTYVAAHAHGDKGARIAIEAGIKTLEHGSLLKEDTLKLMLEKNISLTPTLTITEIIYKYGKTIGVDEWGLEKIVEVRENLHKVLRKAKELGITIITGTHMGFETGLEDYDIGKNWTEILLLTEVGGLSNEEALRAATYNSAKALGLNSGLIDEGKDADIIVIDGNPLENIKDVSKVVHVIKQGKLEVLDSKIINNY	>95 °C
27 (protein, exemplary polypeptide) MDILIKGGQVFNGKDFIGKANVYIKYGKIVEVSKEVKEAKEEIDARDMFVMPGLIDAHIHLSGIKGGSLMKTMFERPEYRVLRASKWLEKLLLAGFTTVRDCGEYVSLALKRAVQEGTIKGSNIIAAGRPVTQTFGHGEISHDIPLEFSHKVGFSEFCDGTESCIHAARKILRDGSDFIKVFATGGVLSQRDKPENPQLSYDEIKAIVNEAHKVGTYVAAHAHGDAGAKIAVEAGVKTIEHGTLLKDDTLKLMVNKGVSLTPTLTIQEVIYRYGKQIGVDEWGLQKIFEVRERVADVVKKAKDYGVLMISGTDLGFETGLWDIDMGKNWYELVLLVERGGLTPKEALTTATYNSSIALGINSGFIDIGKEGDLVVIDGNPLENIYDIAKVTHVLKAGRVEVRNGKLESK	>95 °C
